Results taken from the DeepSol protein solubility set.

Assay: soluble on expression in E. coli; label from the status in PepcDB or PDB records

Sequence	soluble on expression in E. coli
MRWWLCILVLLLAVPAQALLMPGTRVVEEHHANPFEIDVSSIDNLGDIPVDDPSDGINWSFLYLPYPNCTSGTGDATFIAVSRGSSNNILIYLEGGGACSDFYTCGMGQYVDHASCNATPTATVTTLNPNPWVVSYHYRYGIFDRANPDNPFRDWTIVFVPYSTGDVHWGNRVVKYCYYNPYNLSQVDCSINFTVHHVGFVNAITAIRWAAEQGDFDKVVIAGSSAGGYGTIVHSFYAREIFGKPILAIDDAGPGLNVNQSNFTIQMLFGIETLNETWGAYDNLPDDAQDFLGDRDPIFFVDYFLDHYPDSRFALYEDQMDYTIGVFFNGYTEEQFRDLLLNKACEIKAMHRHNFFRYLPLGTEHTILAYPWFYEKNIHNYRVYEWVWDLIKGKKRDAVELDGVRGIYLACPPGIFAKLEHHHHHH	not soluble
MGAFLDKPKMEKHNAQGQGNGLRYGLSSMQGWRVEMEDAHTAVIGLPSGLESWSFFAVYDGHAGSQVAKYCCEHLLDHITNNQDFKGSAGAPSVENVKNGIRTGFLEIDEHMRVMSEKKHGADRSGSTAVGVLISPQHTYFINCGDSRGLLCRNRKVHFFTQDHKPSNPLEKERIQNAGGSVMIQRVNGSLAVSRALGDFDYKCVHGKGPTEQLVSPEPEVHDIERSEEDDQFIILACDGIWDVMGNEELCDFVRSRLEVTDDLEKVCNEVVDTCLYKGSRDNMSVILICFPNAPKVSPEAVKKEAELDKYLECRVEEIIKKQGEGVPDLVHVMRTLASENIPSLPPGGELASKRNVIEAVYNRLNPYKNDDTDSTSTDDMWLEHHHHHH	soluble
MSLKIILSIFLAFFLSACGVKLSLPKEVDLTQEQMKDLNLTYDWYRSYDNAKLNEFLNFVLLNNSDINIARKTLLSALARADLIDYDLYPTLSGNLGFGADKDLNSGKQSKNFNNSLNLSYELDIYGKLRDSASASEFSAKASAYDLENLKISMINTALNDVFELAYFNDVDKLLRAYLSNLEQMKELYNYKYKLGKIEELDLLNIEQSLLRAKQNLLSNDQNRNLLIKNLQDLLARQEGFAYIEYFKTLSEGHHHHHH	soluble
MGSDKIHHHHHHMASLQIAHNTRIVKEAARIAGFDYCGISAARFLEEEAPRLESWLNRNQHGTMSWMENYFDKRLDPRKLVDGAKSVVSVLLNYTPAPEDEILSTGETKISRYAYGKDYHYVLKDKFKQMLQHITEQIGEVNGRAFVDSAPVMDKAWAKQGGLGWVGKHSNIITKDSGSYFFIGELIIDLELDADGPIKDYCGTCTRCIDACPTNAITEPYQVDGSKCISYLTIELKEQIPSEFKEQMQGWAFGCDICQEVCPWNRFAQPINKNEFSPSEELKKYFEMPLKEITKEVFNILFKDSTIKRTKIEGLSRNLTFIKKET	not soluble
MSEQFVTISQHVRNPQEAAALFGVHDIHLKRIEEELGVSIVTRGETVNVSGTPQQVQLVNELLRHLLIVIRKGAAVSERDVLYAIQLAKKGALDGLVQLYDEEITKNAKGKPIRVKTLGQRYYVAAIEQYDLTFGIGPAGTGKTYLAVVMAVKALKNGSVKRIILTRPAVEAGESLGFLPGDLKEKVDPYLRPLYDALNDVLGAEYTQRLIERGTIEIAPLAYMRGRTLEDAFVILDEAQNTTPAQMKMFLTRLGFGSKMVITGDISQVDLPKGVESGLSVAKRILASIGGIAFVFLEQSDVVRHPLVAKIIDAYDEAGL	not soluble
MKYLAGIVTFNPNIERLDQNIRAIYPQVSHIYIVDNGSKNKEEISQLVADYNEEGHLTVDYLTENKGIAYALNCIGQFAVAQEFDWFLTLDQDSVVLGDLIDNYENYLHLPKVGMLSCLYQDMNRENLVMQEFDYKEIEECITSAALMKTSVFEETSGFAEEMFIDFVDSEMNYRLSEMGYKTYQVNFIGLLHEIGHSSRVKKFGHVFHVLNHSPFRKYYMIRNAIYIIKKYGKKKRYKYLVFMRNEFVRVLVAEEQKSKKIVAMIKGLKDGLLMKVDKYGKLEHHHHHH	soluble
MGSDKIHHHHHHMKVGVALSGGVDSAVALYLLLKEGHEVKAFHMKTKEDEFFIKKEIKKKVCCSPSDTADAMRIAHFLGVEIEIVDVKEIFREKVIEPFKRDLLKGLTPNPCAHCNRFVKFGYLMDYVLNQGFDAFASGHYARIEFSEKYGRKVIKKGVDLKKDQSYFLARIEPWRIERLIFPNGIYTKEEIRKIAEEAGIHVAKKQESQDVCFIPDGSIENFLKDEGITLKDGDIITPEGEVVGRHFGYPLYTIGQRKGFKIEKFGRRYYVRGKIPEKNVVVVSDLEDVFFSGLIAEDPVWHVEVPEEFRCVCRVRKKSEEAPAVVKVKDNEVEVSFEKKVFAVTPGQIAAFYDGDTLLGGAIIKEGIR	not soluble
